The results in this text go back to US20150166987, “PROGRAMMABLE AND RECONFIGURABLE MICROCOLUMN AFFINITY CHROMATOGRAPY DEVICE, SYSTEM, AND METHODS OF USE THEREOF” (CORNELL UNIVERSITY, published 2015).

In series [1] the target is hHSF1 (heat shock factor 1) (UniProt Q00613 Q00613:1-529). Put plainly: pulldown; serial microcolumns, qPCR; same buffer, 5 mM MgCl2. The note with it: tags: N-terminal GST; immobilised on glutathione-agarose. How it is done: (§1) The order of targets was as follows: Empty, GSH, Ni-NTA, Amylose, His-GFP, GST-hHSF1, His-NELF-E, His-UBLCP1, and is illustrated in FIG. 41 in section I.
(§2) The RNA pools were injected at a rate of 33 μL/min for 30 min with a 10 μL aliquot of each pool set aside and used as a standard for quantitative polymerase chain reaction (qPCR) analysis. All buffers and solutions were degassed prior to use and introduced into the microcolumns via programmable multichannel syringe pumps (Harvard Apparatus) with MEDUSA placed onto a 96-well format liquid waste reservoir. The microcolumns were reconfigured to run in parallel by removing the caps and silicone layers permitting the connectivity of microcolumns, and reassembling the device with the appropriate caps for a parallel configuration, and washed with 3 mL of binding buffer at a rate of 300 μL/min. The RNA/RNA-protein complexes were eluted directly into a 96-well microplate from the individual microcolumns by flowing elution buffer [binding buffer+50 mM ethylenediaminetetraacetic acid (EDTA pH 8.0) for selections with Ni-NTA resin; binding buffer+10 mM glutathione for selections with GSH resin; binding buffer+10 mM maltose for selections with amylose-resin] at a rate of 50 μL/min for 12 min. […]
Background: Real-time PCR tracks product formation cycle by cycle.

Series [2] deals with GFP (UniProt P42212 P42212:1-238). The series is described as follows: pulldown; serial microcolumns, qPCR; 10 mM HEPES-KOH pH 7.6, 125 mM NaCl, 25 mM KCl, 5 mM MgCl2, 0.02% Tween-20; GFP 0.6 ug/uL resin. The note with it: tags: N-terminal hexahistidine; immobilised on Ni-NTA Superflow resin. On the procedure: as §1, §2
The target in series [3] is T1, NELF-E (Drosophila, UniProt P92204 P92204:1-280).
T1 sequence: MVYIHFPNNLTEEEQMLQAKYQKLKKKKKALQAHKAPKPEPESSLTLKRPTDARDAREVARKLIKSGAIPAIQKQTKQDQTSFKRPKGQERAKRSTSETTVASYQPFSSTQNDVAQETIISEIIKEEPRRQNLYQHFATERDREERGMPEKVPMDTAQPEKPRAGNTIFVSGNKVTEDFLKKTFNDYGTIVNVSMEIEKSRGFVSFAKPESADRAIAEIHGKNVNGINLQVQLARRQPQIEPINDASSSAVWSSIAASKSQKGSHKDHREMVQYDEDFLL
Put plainly: pulldown; serial microcolumns, qPCR; enrichment falls above 0.6 ug/uL NELF-E, de-enriched at 10 ug/uL. The note with it: tags: N-terminal hexahistidine; immobilised on Ni-NTA Superflow resin.

Sequence of hHSF1 (heat shock factor 1) (Q00613 whole entry, one chain of several): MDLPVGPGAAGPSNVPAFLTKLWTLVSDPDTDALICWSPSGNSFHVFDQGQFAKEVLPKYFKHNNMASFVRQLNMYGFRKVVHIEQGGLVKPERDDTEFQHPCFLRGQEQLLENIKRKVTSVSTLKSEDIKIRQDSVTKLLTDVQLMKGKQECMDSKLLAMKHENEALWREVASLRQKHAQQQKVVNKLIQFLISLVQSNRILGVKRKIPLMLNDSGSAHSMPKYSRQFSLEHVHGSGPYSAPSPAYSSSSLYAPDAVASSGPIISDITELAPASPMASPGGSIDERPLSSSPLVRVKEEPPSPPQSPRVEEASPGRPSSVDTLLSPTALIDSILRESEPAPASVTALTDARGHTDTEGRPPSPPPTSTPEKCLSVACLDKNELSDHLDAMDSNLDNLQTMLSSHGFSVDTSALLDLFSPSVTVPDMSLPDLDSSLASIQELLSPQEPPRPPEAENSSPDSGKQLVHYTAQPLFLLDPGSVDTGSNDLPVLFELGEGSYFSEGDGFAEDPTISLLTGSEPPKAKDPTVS

B1: HSFapt (hHSF2-R5-2) (ssRNA)
RNA: GGGAAUGGAUCCACAUCUACGAAUUCAAUCAAGUCCCCAGACUCAGCAACACUGGACAGCGAUAUGCAGAUAACCAAGACCAAUUCACUCCAGUUCACUGCAGACUUGACGAAGCUU
In the case of B1, the binding signal in series [1] is 232 fold enrichment over N70 library.

B2: GFPapt (AP3-1) (ssRNA)
RNA: AGCUUCUGGACUGCGAUGGGAGCACGAAACGUCGUGGCGCAAUUGGGUGGGGAAAGUCCUUAAAAGAGGGCCACCACAGAAGCU
As for B2, the binding signal in series [2] was 750 fold enrichment over N70 library.

B3: NELFapt (Napt1) (ssRNA)
RNA: GGGAAUGGAUCCACAUCUACGAAUUCCCAACGACUGCCGAGCGAGAUUACGCUUGAGCGCCCCACUGAGGAUGCCCACGGGCGAUUGGGGCACGGCUUCACUGCAGACUUGACGAAGCUU
On to B3, for which the binding signal in series [3] was 262 fold enrichment over N70 library.
